Data: IntAct's records for PubMed 20346719

B1: Flagellar motor switch protein FliM (Escherichia coli (strain K12)), P06974 (parent)
chain: MGDSILSQAEIDALLNGDSEVKDEPTASVSGESDIRPYDPNTQRRVVRERLQALEIINERFARHFRMGLFNLLRRSPDITVGAIRIQPYHEFARNLPVPTNLNLIHLKPLRGTGLVVFSPSLVFIAVDNLFGGDGRFPTKVEGREFTHTEQRVINRMLKLALEGYSDAWKAINPLEVEYVRSEMQVKFTNITTSPNDIVVNTPFHVEIGNLTGEFNICLPFSMIEPLRELLVNPPLENSRNEDQNWRDNLVRQVQHSQLELVANFADISLRLSQILKLNPGDVLPIEKPDRIIAHVDGVPVLTSQYGTLNGQYALRIEHLINPILNSLNEEQPK
partner: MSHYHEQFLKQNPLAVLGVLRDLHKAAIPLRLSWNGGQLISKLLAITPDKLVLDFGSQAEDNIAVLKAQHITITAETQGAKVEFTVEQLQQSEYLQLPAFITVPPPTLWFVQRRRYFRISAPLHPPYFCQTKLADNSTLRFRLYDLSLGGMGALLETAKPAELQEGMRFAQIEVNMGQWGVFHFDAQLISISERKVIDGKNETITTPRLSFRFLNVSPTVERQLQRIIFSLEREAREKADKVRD
B2: Flagellar brake protein YcgR (Escherichia coli (strain K12)), P76010 (parent)
chain: B1 partner
partner: B1 chain
B3: Flagellar brake protein YcgR (Escherichia coli (strain K12)), P76010 (parent)
chain: B1 partner
partner: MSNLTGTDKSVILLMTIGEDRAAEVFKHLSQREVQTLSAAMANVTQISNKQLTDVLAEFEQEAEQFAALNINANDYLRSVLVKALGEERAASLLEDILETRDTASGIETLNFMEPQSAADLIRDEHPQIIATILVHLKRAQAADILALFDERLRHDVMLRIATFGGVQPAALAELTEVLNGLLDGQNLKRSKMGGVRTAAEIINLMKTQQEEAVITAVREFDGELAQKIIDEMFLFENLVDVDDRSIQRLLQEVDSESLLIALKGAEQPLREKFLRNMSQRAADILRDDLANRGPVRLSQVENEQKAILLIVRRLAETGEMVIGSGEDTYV
B4: Flagellar motor switch protein FliG (Escherichia coli (strain K12)), P0ABZ1 (parent)
chain: B3 partner
partner: B1 partner

Variants of: B1
Conditions: with ycgr_ecoli ycgR

| effect of a mutation on the interaction | Variant |
| --- | --- |
| disrupting interaction | L160E |
| decreasing interaction | E176R |
| decreasing interaction | D167R |
| disrupting interaction | R156E |
| decreasing interaction | V153D |
| decreasing interaction | N155E |

Variants of: B2
Conditions: with flim_ecoli fliM

| effect of a mutation on the interaction | Variant |
| --- | --- |
| disrupting interaction | Q223P |
| disrupting interaction | I227W |

Variants of: B3
Conditions: with flig_ecoli fliG

| effect of a mutation on the interaction | Variant |
| --- | --- |
| decreasing interaction | K81D |
| decreasing interaction | N62W |

Variants of: B4
Conditions: with ycgr_ecoli ycgR

| effect of a mutation on the interaction | Variant |
| --- | --- |
| decreasing interaction | Q252W |
| decreasing interaction | P295W |
| decreasing interaction | N292W |
